Results: publication PMC6003922, “Functional switching of ascorbate peroxidase 2 of rice (OsAPX2) between peroxidase and molecular chaperone” (Scientific Reports, 2018)

Biological target: the molecule itself
Assay: SEC; Superdex 200 10/300 GL, FPLC, 50 mM Tris-HCl pH 7.5, 100 mM NaCl, 0.5 mL/min, 4 °C; four fractions: F1 HMW complexes (>2,000 kDa), F2 and F3 LMW forms (between 158 and 440 kDa), F4 major dimeric form

B1: recombinant Oryza sativa ascorbate peroxidase 2 (OsAPX2) protein (enzyme, UniProt Q9FE01 1-251, looked up)
chain: MGSKSYPTVSDEYLAAVGKAKRKLRGLIAEKNCAPLMLRLAWHSAGTFDVSSRTGGPFGTMKNPGEQSHAANAGLDIAVRLLDPIKDQLPILSYADFYQLAGVVAVEVTGGPEVPFHPGRQDKPEPPPEGRLPDATQGSDHLRQVFSAQMGLSDKDIVALSGGHTLGRCHKERSGFEGAWTSNPLIFDNSYFTELVSGEKEGLLQLPSDKALMADPAFRPLVEKYAADEDAFFADYAEAHLKLSELGFAEE
notes: Ascorbate peroxidase 2 (OsAPX2), cytosolic, Oryza sativa; the OsAPX2 gene cloned into pET28a; monomer of approximately 27 kDa on reducing SDS-PAGE; Haem-containing peroxidase; also called His-tagged OsAPX2; purified OsAPX2; source: E. coli BL21 (DE3), pET28a, purified (nickel-nitrilotriacetate agarose; SEC)
stoichiometry N: 2
